Test results as given in patent US20220411521A1 (Ablynx, published 2022).

T1: human GITR (human, UniProt Q9Y5U5 26-241)
T1 sequence: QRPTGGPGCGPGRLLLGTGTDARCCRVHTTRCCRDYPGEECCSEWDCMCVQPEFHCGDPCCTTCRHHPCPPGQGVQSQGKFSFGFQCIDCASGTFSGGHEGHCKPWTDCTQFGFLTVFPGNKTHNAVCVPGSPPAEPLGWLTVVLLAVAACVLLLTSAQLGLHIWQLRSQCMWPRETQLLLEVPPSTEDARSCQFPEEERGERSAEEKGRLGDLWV

T2: human GITR-Fc (Enzo Life Sciences, ALX-522-061-C050) (human, UniProt Q9Y5U5 26-162)
T2 construct: Bought protein; not shown: Fc part of the bought fusion protein; not described
T2 sequence: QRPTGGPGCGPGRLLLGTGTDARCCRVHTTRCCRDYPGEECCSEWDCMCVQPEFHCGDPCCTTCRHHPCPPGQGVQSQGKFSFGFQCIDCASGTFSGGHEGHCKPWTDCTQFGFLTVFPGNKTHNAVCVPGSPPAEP

B1: A023100101 (VHH)
chain: DVQLVESGGGVVQPGGSLRLSCAASETIFSIDSMAWYRQAPGKQRELVAAITGGGSPNYADSVKGRFTISSDVSKRTVYLQMNSLRPEDTALYYCNAEGQAGWGTALLDYWGQGTLVTVSSGGGGSGGGSEVQLVESGGGVVQPGGSLRLSCAASETIFSIDSMAWYRQAPGKQRELVAAITGGGSPNYADSVKGRFTISSDVSKRTVYLQMNSLRPEDTALYYCNAEGQAGWGTALLDYWGQGTLVTVSSGGGGSGGGSEVQLVESGGGVVQPGGSLRLSCAASETIFSIDSMAWYRQAPGKQRELVAAITGGGSPNYADSVKGRFTISSDVSKRTVYLQMNSLRPEDTALYYCNAEGQAGWGTALLDYWGQGTLVTVSSGGGGSGGGGSGGGGSGGGGSGGGGSGGGGSGGGGSEVQLVESGGGVVQPGGSLRLSCAASGFTFRSFGMSWVRQAPGKGPEWVSSISGSGSDTLYADSVKGRFTISRDNSKNTLYLQMNSLRPEDTALYYCTIGGSLSRSSQGTLVTVSSA
B2: A023100107 (VHH)
chain: DVQLVESGGGVVQPGGSLRLSCAASETIFSIDSMAWYRQAPGKQRELVAAITGGGSPNYADSVKGRFTISSDVSKRTVYLQMNSLRPEDTALYYCNAEGQAGWGTALLDYWGQGTLVTVSSGGGGSGGGSEVQLVESGGGVVQPGGSLRLSCAASETIFSIDSMAWYRQAPGKQRELVAAITGGGSPNYADSVKGRFTISSDVSKRTVYLQMNSLRPEDTALYYCNAEGQAGWGTALLDYWGQGTLVTVSSGGGGSGGGSEVQLVESGGGVVQPGGSLRLSCAASETIFSIDSMAWYRQAPGKQRELVAAITGGGSPNYADSVKGRFTISSDVSKRTVYLQMNSLRPEDTALYYCNAEGQAGWGTALLDYWGQGTLVTVSSGGGGSGGGSEVQLVESGGGVVQPGGSLRLSCAASETIFSIDSMAWYRQAPGKQRELVAAITGGGSPNYADSVKGRFTISSDVSKRTVYLQMNSLRPEDTALYYCNAEGQAGWGTALLDYWGQGTLVTVSSGGGGSGGGGSGGGGSGGGGSGGGGSGGGGSGGGGSEVQLVESGGGVVQPGGSLRLSCAASGFTFRSFGMSWVRQAPGKGPEWVSSISGSGSDTLYADSVKGRFTISRDNSKNTLYLQMNSLRPEDTALYYCTIGGSLSRSSQGTLVTVSSA
B3: A023100118 (VHH)
chain: DVQLVESGGGVVQPGGSLRLSCAASETIFSIDSMAWYRQAPGKQRELVAAITGGGSPNYADSVKGRFTISSDVSKRTVYLQMNSLRPEDTALYYCNAEGQAGWGTALLDYWGQGTLVTVSSGGGGSGGGSEVQLVESGGGVVQPGGSLRLSCAASETIFSIDSMAWYRQAPGKQRELVAAITGGGSPNYADSVKGRFTISSDVSKRTVYLQMNSLRPEDTALYYCNAEGQAGWGTALLDYWGQGTLVTVSSGGGGSGGGSEVQLVESGGGVVQPGGSLRLSCAASETIFSIDSMAWYRQAPGKQRELVAAITGGGSPNYADSVKGRFTISSDVSKRTVYLQMNSLRPEDTALYYCNAEGQAGWGTALLDYWGQGTLVTVSSGGGGSGGGSEVQLVESGGGVVQPGGSLRLSCAASETIFSIDSMAWYRQAPGKQRELVAAITGGGSPNYADSVKGRFTISSDVSKRTVYLQMNSLRPEDTALYYCNAEGQAGWGTALLDYWGQGTLVTVSSGGGGSGGGSEVQLVESGGGVVQPGGSLRLSCAASETIFSIDSMAWYRQAPGKQRELVAAITGGGSPNYADSVKGRFTISSDVSKRTVYLQMNSLRPEDTALYYCNAEGQAGWGTALLDYWGQGTLVTVSSGGGGSGGGGSGGGGSGGGGSGGGGSGGGGSGGGGSEVQLVESGGGVVQPGGSLRLSCAASGFTFRSFGMSWVRQAPGKGPEWVSSISGSGSDTLYADSVKGRFTISRDNSKNTLYLQMNSLRPEDTALYYCTIGGSLSRSSQGTLVTVSSA
B4: A023100127 (VHH)
chain: DVQLVESGGGVVQPGGSLRLSCAASGSIFSIDSMGWYRQAPGKQRELVAAITSSTNYADSVKGRFTISRDNSKNTVYLQMNSLRPEDTALYYCNLEGQAGWGTALINYWGQGTLVTVSSGGGGSGGGSEVQLVESGGGVVQPGGSLRLSCAASGSIFSIDSMGWYRQAPGKQRELVAAITSSTNYADSVKGRFTISRDNSKNTVYLQMNSLRPEDTALYYCNLEGQAGWGTALINYWGQGTLVTVSSGGGGSGGGSEVQLVESGGGVVQPGGSLRLSCAASGSIFSIDSMGWYRQAPGKQRELVAAITSSTNYADSVKGRFTISRDNSKNTVYLQMNSLRPEDTALYYCNLEGQAGWGTALINYWGQGTLVTVSSGGGGSGGGSEVQLVESGGGVVQPGGSLRLSCAASGSIFSIDSMGWYRQAPGKQRELVAAITSSTNYADSVKGRFTISRDNSKNTVYLQMNSLRPEDTALYYCNLEGQAGWGTALINYWGQGTLVTVSSGGGGSGGGGSGGGGSGGGGSGGGGSGGGGSGGGGSEVQLVESGGGVVQPGGSLRLSCAASGFTFRSFGMSWVRQAPGKGPEWVSSISGSGSDTLYADSVKGRFTISRDNSKNTLYLQMNSLRPEDTALYYCTIGGSLSRSSQGTLVTVSSA
B5: A023100105 (VHH)
chain: DVQLVESGGGVVQPGGSLRLSCAASGSIFSIDSMGWYRQAPGKQRELVAAITSSTNYADSVKGRFTISRDNSKNTVYLQMNSLRPEDTALYYCNLEGQAGWGTALINYWGQGTLVTVSSGGGGSGGGSEVQLVESGGGVVQPGGSLRLSCAASGSIFSIDSMGWYRQAPGKQRELVAAITSSTNYADSVKGRFTISRDNSKNTVYLQMNSLRPEDTALYYCNLEGQAGWGTALINYWGQGTLVTVSSGGGGSGGGSEVQLVESGGGVVQPGGSLRLSCAASGSIFSIDSMGWYRQAPGKQRELVAAITSSTNYADSVKGRFTISRDNSKNTVYLQMNSLRPEDTALYYCNLEGQAGWGTALINYWGQGTLVTVSSGGGGSGGGGSGGGGSGGGGSGGGGSGGGGSGGGGSEVQLVESGGGVVQPGGSLRLSCAASGFTFRSFGMSWVRQAPGKGPEWVSSISGSGSDTLYADSVKGRFTISRDNSKNTLYLQMNSLRPEDTALYYCTIGGSLSRSSQGTLVTVSSA
B6: A0231051E01 (VHH)
VHH: EVQLVESGGGLVQAGGSLRLSCAASGSIFSFIVMGWYRQAPGEQRALVATVTSGGDTFYVDSVKDRFTISRDNAKNTVYLQMNSLKPEDTAVYFCYFTKVSPYKETTWGQGTLVTVSS
notes: Monovalent Nanobody expressed in E. coli with a triple Flag, HIS6 tag; also called A0231PMP051E01; PA0231PMP051E01.1; not shown: C-terminal triple FLAG and HIS6 tag
B7: A0231052E08 (VHH)
VHH: EVQLVESGGGLVQAGGSLRLSCTGSRSIFSTYAMAWHRQAPGKQRELVGFIYWGGTTTYSDSVKGRFTISRDNAKNTMYLQMNSLKPEDAGVYYCNIYGSYALPWGQGTLVTVSS
notes: Monovalent Nanobody expressed in E. coli with a triple Flag, HIS6 tag; also called A0231PMP052E08; PA0231PMP052E08.1; not shown: C-terminal triple FLAG and HIS6 tag

Target: T1, human GITR
Assay: cell-based or functional assay

In order of falling “EC50, HEK293_NF-κB luc reporter” value:
1. B1  0.02 nM
2. B4  0.0157 nM
3. B2  0.0147 nM
4. B3  0.0128 nM

In order of rising “Efficacy (%), human GITR ligand = 100%, HEK293_NF-κB luc reporter” value:
1. B1  136%
2. B3  140%
3. B2  147%
4. B4  150%

Target: T1, human GITR
Assay: cell-based or functional assay
Remark: another data set of the same source

In order of falling “EC50, IFN-γ read-out, human T cell activation assay” value:
1. B2  0.0646 nM
2. B1  0.0642 nM
3. B5  0.06 nM
4. B4  0.0587 nM
5. B3  0.0426 nM

In order of rising “Maximal efficacy (%), human GITR ligand = 100%, IFN-γ read-out” value:
1. B4  86.8%
2. B1  92.6%
3. B3  95.6%
4. B5  97%
5. B2  99.8%

Target: T2, human GITR-Fc (Enzo Life Sciences, …)
Assay: ProteOn XPR36; human GITR-Fc amine-coupled on GLC chip, Nanobody injected at 6 concentrations
Protocol: Affinity was determined on the Proteon XPR36. Briefly, after human GITR-Fc (Enzo Life Sciences, ALX-522-061-C050) was immobilized on a GLC chip via amine coupling, a range of 6 concentrations of different monovalent Nanobodies (representing each family) were injected. The Ko values were determined by using the calculated association rate and dissociation rate constants (Table 1) (ProteOn Manager 3.1.0, Version 3.1.0.6 (2011)).

In order of falling Kd:
1. B7  120 nM
2. B6  78 nM

In order of falling koff:
1. B7  0.09 s⁻¹
2. B6  0.015 s⁻¹

In order of rising kon:
1. B6  190000 M⁻¹ s⁻¹
2. B7  750000 M⁻¹ s⁻¹
